Each block holds one molecule with its values, some of them ahead of it. Ends that are not written are not given here.
Legend:
Format in all cases: cell-based
[1] = biological target: T1, CCR1 (Homo sapiens, UniProt P32246); assay: Receptor-HIT BRET, β-arr2/Venus with RAGE/Rluc8 and CCR1; conditions: in the presence of CCR1
T1 construct: expressed in transfected cells; host or cells: HEK293FT, transient
From the text: (§1) Bioluminescence Resonance Energy Transfer (BRET)
(§2) BRET is an established technology for studying protein-protein proximity in live cells, particularly involving GPCRs (Pfleger and Eidne, 2006). One protein of interest was linked to a bioluminescent donor enzyme, Rluc8, a variant of Renilla luciferase, and a second linked to an acceptor fluorophore, Venus, a variant of green fluorescent protein. If in close proximity (<10 nm), energy resulting from the rapid oxidation of a cell-permeable coelenterazine substrate by the donor can transfer to the acceptor, which in turn fluoresces at a longer characteristic wavelength.
(§3) Plasmids were transiently co-expressed in human embryonic kidney (HEK) 293FT cells and BRET measurements taken at 37° C. using a POLARstar Omega or LUMIstar plate reader (BMG Labtech, Mornington, Victoria, Australia) with 460-490 nm (‘donor emission’) and 520-550 nm (‘acceptor emission’) filters, or a VICTOR Light plate reader (Perkin Elmer, Glen Waverley, Victoria, Australia) with 400-475 nm (‘donor emission’) and 520-540 nm (‘acceptor emission’) filters, or a CLARIOstar plate reader (BMG Labtech, Mornington, Victoria, Australia) with 420-480 nm (‘donor emission’) and 520-620 nm (‘acceptor emission’) filters. […]
(§4) For BRET kinetic assays, the final pre-treatment reading is presented at the zero time point (time of ligand/vehicle addition). […]

[2] = biological target: T2, CCR7 (Homo sapiens, UniProt P32248); assay: Receptor-HIT BRET, β-arr2/Venus with RAGE/Rluc8 and CCR7; conditions: in the presence of CCR7
T2 construct: expressed in transfected cells; host or cells: HEK293FT, transient
T2 sequence (P32248 25-378): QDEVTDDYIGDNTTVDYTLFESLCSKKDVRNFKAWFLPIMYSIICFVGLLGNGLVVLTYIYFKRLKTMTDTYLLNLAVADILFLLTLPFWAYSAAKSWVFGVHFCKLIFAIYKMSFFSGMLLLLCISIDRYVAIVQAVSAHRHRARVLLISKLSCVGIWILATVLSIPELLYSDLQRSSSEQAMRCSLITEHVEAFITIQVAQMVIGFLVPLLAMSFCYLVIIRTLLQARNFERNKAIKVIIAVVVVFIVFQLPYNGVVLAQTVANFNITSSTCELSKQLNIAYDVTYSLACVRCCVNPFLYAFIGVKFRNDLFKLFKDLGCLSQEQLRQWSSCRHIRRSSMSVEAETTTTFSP
T2 sequence (P32121 whole entry partner): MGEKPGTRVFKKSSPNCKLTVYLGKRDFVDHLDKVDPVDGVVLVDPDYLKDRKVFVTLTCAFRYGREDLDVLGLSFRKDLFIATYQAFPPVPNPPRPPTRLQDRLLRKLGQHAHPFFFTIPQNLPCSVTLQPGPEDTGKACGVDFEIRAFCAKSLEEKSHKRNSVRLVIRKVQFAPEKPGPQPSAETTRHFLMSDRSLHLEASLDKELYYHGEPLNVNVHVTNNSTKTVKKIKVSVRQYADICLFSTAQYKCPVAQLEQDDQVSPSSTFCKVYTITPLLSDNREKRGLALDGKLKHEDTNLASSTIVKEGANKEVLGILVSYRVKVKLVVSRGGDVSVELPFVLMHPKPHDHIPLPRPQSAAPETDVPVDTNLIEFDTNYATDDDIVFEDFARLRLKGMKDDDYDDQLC
From the text: as §1, §2, §3, §4

[3] = biological target: T3, CCR6 (Homo sapiens, UniProt P51684); assay: Receptor-HIT BRET, β-arr2/Venus with RAGE/Rluc8 and CCR6; conditions: in the presence of CCR6
T3 construct: expressed in transfected cells; host or cells: HEK293FT, transient
T3 sequence (P51684 whole entry): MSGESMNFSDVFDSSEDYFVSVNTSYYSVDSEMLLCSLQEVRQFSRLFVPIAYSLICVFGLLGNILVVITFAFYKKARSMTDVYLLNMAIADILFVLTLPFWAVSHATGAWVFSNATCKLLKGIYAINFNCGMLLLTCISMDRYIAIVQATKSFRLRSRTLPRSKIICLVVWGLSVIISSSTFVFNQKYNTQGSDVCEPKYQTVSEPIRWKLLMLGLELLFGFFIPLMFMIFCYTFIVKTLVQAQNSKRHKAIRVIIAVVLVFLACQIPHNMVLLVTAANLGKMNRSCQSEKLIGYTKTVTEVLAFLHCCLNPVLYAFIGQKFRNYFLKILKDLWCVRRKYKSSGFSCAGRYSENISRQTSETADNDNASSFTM
T3 sequence (P32121 whole entry partner): as the sequence (P32121 whole entry partner) above
From the text: as §1, §2, §3, §4

[4] = biological target: T4, CXCR1 (Homo sapiens, UniProt P25024); assay: Receptor-HIT BRET, β-arr2/Venus with RAGE/Rluc8 and CXCR1; conditions: in the presence of CXCR1
T4 construct: expressed in transfected cells; host or cells: HEK293FT, transient
T4 sequence (P25024 whole entry, species assumed): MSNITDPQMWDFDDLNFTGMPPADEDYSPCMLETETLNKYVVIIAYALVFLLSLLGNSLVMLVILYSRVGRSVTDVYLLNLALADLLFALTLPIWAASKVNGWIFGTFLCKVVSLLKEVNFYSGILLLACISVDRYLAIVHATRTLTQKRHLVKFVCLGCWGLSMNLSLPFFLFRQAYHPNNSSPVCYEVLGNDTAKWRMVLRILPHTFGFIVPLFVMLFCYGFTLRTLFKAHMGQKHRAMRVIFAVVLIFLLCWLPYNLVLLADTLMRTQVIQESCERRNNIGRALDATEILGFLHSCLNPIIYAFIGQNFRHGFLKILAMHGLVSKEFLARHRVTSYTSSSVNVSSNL
T4 sequence (P32121 whole entry partner, species assumed): as the sequence (P32121 whole entry partner) above
From the text: as §1, §2, §3, §4

[5] = biological target: T5, CXCR2 (Homo sapiens, UniProt P25025); assay: Receptor-HIT BRET, β-arr2/Venus with RAGE/Rluc8 and CXCR2; conditions: in the presence of CXCR2
T5 construct: expressed in transfected cells; host or cells: HEK293FT, transient
T5 sequence (P25025 whole entry): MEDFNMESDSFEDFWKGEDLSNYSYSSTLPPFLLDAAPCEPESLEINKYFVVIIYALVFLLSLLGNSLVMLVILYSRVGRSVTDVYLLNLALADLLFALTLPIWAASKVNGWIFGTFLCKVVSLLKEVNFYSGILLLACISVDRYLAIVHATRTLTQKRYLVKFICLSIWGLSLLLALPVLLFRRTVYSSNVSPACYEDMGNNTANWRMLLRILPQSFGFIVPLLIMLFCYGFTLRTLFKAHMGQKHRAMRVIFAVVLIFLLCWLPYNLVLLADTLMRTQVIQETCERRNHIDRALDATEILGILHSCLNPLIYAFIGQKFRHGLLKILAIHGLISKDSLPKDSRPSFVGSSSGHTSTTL
T5 sequence (P32121 whole entry partner): as the sequence (P32121 whole entry partner) above
From the text: as §1, §2, §3, §4

[6] = biological target: T6, CXCR3 (Homo sapiens, UniProt P49682); assay: Receptor-HIT BRET, β-arr2/Venus with RAGE/Rluc8 and CXCR3; conditions: in the presence of CXCR3
T6 construct: expressed in transfected cells; host or cells: HEK293FT, transient
T6 sequence (P49682 whole entry, species assumed): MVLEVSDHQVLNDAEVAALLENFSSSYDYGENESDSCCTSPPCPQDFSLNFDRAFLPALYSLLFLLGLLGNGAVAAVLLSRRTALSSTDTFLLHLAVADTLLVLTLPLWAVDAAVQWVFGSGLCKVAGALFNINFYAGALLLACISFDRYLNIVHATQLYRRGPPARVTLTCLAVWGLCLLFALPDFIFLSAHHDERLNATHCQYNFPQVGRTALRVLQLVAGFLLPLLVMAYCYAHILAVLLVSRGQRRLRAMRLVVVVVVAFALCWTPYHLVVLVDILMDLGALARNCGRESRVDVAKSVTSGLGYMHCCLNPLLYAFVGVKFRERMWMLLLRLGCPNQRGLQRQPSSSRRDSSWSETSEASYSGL
T6 sequence (P32121 whole entry partner, species assumed): as the sequence (P32121 whole entry partner) above
From the text: as §1, §2, §3, §4

[7] = biological target: T7, CXCR4 (Homo sapiens, UniProt P61073); assay: Receptor-HIT BRET, β-arr2/Venus with RAGE/Rluc8 and CXCR4; conditions: in the presence of CXCR4
T7 construct: expressed in transfected cells; host or cells: HEK293FT, transient
T7 sequence (P61073 whole entry): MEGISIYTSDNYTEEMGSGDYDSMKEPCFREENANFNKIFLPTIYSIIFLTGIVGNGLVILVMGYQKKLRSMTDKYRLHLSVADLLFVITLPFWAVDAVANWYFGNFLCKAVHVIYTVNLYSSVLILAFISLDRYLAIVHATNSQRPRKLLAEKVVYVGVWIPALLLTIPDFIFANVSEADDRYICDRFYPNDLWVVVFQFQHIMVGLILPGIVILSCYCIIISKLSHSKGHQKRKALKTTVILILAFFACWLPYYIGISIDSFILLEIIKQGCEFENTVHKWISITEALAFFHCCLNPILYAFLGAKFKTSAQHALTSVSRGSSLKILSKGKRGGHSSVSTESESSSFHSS
T7 sequence (P32121 whole entry partner): as the sequence (P32121 whole entry partner) above
From the text: as §1, §2, §3, §4

[8] = biological target: T8, AT1 (Homo sapiens, UniProt P30556); assay: BRET between mCherry/RAGE338-361 and luciferase-tagged AT1; design: expressed in transfected cells; host or cells: HEK293FT, transient
T8 sequence (P30556 1-359): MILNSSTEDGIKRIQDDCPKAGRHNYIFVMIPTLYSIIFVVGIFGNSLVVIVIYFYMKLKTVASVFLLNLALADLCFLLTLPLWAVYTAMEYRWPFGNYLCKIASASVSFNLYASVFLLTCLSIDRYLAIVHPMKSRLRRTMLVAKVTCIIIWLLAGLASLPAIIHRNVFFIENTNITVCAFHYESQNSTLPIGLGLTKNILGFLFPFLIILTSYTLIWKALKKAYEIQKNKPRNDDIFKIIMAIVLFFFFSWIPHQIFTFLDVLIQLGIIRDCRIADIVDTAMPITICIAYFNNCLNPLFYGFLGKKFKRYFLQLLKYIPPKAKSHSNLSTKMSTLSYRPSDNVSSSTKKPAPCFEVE
Experimental: FIG. 21A. BRET between mCherry/RAGE338-361 and Nluc/AT1 is increased with Ang II. Data are presented as mean±SEM; n=3-5.
FIG. 21D. Lack of Ang II-induced BRET signal between AT1/Rluc8 and mCherry/RAGE338-361 where cells were transfected with 50 ng AT1/Rluc8 cDNA, 300 ng RAGE/Venus cDNA and 0, 50, 100, 200, 300 or 400 ng of mCherry/RAGE338-361 CDNA or pcDNA3 control plasmid as indicated. Data are presented as mean±SEM; n=3-4. Filters: mCherry 650 nm/Rluc8 450 nm.
as §1
BRET is an established technology for studying protein-protein proximity in live cells, particularly involving GPCRs (Pfleger and Eidne, 2006). […]
as §3

[9] = tested on: Human microvascular endothelial cells (HMEC); assay: Ang II-induced pro-inflammatory signalling (ICAM-1, MCP-1 RT-PCR) in HMEC; conditions: overexpression of construct
Experimental: Primary aortic endothelial cells (PMAEC) were isolated from the aortae of (wild-type) C57bl6 mice and AGER KO mice and cultured in Dulbecco's modified Eagle's medium (DMEM)/F12 endothelial cell growth supplement (ECGS) supplemented media. Chinese Hamster Ovary (CHO) cells were cultured using F12 media (10% FCS with 2 mM glutamine). Human microvascular endothelial cells (HMEC) were cultured in MCDB 131 medium (10% FCS with 10 mM glutamine, EGF and hydrocortisone).
Cellular Expression of Pro-Inflammatory Markers and Mediators by Quantitative Real-Time PCR
After 2 hours of exposure to Ang II (1 μM) or the RAGE ligand, S100A8/A9 (5 ng/ml) cells were placed in Trizol, mRNA extracted and cDNA synthesized. Changes in the gene expression of the NFκB subunit, p65 (RelA) or NFκB-activated target genes (e.g ICAM-1, VCAM-1) were estimated by quantitative real-time RT-PCR, performed using the TaqMan system based on real-time detection of accumulated fluorescence (ABI Prism 7700, Perkin-Elmer Inc, PE Biosystems, Foster City, CA, USA). Gene expression was normalized to 18S mRNA and reported as fold change compared to the level of expression in untreated control mice/cells, which were given an arbitrary value of 1.

[10] = biological target: T9, CXCR6 (Homo sapiens, UniProt O00574); assay: Receptor-HIT BRET, β-arr2/Venus with RAGE/Rluc8 and CXCR6; conditions: in the presence of CXCR6
T9 construct: expressed in transfected cells; host or cells: HEK293FT, transient
T9 sequence (O00574 whole entry): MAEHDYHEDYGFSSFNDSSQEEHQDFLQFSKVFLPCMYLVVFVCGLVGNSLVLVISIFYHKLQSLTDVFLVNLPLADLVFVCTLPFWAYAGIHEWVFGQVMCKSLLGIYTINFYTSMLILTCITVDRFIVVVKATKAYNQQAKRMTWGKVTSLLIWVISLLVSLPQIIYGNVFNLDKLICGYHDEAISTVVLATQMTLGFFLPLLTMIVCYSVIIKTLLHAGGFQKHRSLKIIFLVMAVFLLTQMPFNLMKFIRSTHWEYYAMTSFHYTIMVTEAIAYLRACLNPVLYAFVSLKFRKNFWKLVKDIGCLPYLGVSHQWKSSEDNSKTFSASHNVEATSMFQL
T9 sequence (P32121 whole entry partner): as the sequence (P32121 whole entry partner) above
From the text: as §1, §2, §3, §4

[11] = biological target: T10, CCR10 (Homo sapiens, UniProt P46092); assay: Receptor-HIT BRET, β-arr2/Venus with RAGE/Rluc8 and CCR10; conditions: in the presence of CCR10
T10 construct: expressed in transfected cells; host or cells: HEK293FT, transient
T10 sequence (P46092 whole entry): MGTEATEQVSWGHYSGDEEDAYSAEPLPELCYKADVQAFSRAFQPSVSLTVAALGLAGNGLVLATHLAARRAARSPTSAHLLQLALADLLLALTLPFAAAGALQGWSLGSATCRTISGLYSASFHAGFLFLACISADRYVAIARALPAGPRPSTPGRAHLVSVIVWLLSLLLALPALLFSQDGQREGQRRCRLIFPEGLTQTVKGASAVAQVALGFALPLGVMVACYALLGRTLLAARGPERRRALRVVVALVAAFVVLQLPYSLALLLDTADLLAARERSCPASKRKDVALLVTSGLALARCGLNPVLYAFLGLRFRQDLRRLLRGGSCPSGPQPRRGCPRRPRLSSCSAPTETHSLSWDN
T10 sequence (P32121 whole entry partner): as the sequence (P32121 whole entry partner) above
From the text: as §1, §2, §3, §4

T1 sequence (P32246 whole entry): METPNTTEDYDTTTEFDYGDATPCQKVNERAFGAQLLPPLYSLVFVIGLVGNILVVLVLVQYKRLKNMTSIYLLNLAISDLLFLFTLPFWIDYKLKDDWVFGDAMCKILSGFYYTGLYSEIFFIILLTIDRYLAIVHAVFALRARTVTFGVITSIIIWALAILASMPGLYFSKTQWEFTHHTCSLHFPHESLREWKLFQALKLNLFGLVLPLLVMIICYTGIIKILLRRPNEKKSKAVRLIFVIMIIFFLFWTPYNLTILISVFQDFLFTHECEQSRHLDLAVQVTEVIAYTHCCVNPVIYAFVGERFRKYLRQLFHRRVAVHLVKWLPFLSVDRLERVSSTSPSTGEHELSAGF
T1 sequence (P32121 whole entry partner): as the sequence (P32121 whole entry partner) above

recruitment of β-arr2/Venus proximal to RAGE/Rluc8 [2]: recruitment
Molecule: CCL19: chemokine ligand used to activate CCR7

β-arr2/Venus proximity to RAGE/Rluc8 [7]: reduction
Molecule: CXCL 12: chemokine ligand used to activate CXCR4

recruitment of β-arr2/Venus proximal to RAGE/Rluc8 [10]: recruitment
B1: CXCL16: chemokine ligand used to activate CXCR6 (protein)
chain: NEGSVTGSCYCGKRISSDSPPSVQFMNRLRKHLRAYHRCLYYTRFQLLSWSVCGGNKDPWVQELMSCLDLKECGHAYSGIVAHQKHLLP

Second part, the molecule before the results:

Molecule: CCL3: chemokine ligand used to activate CCR1
recruitment of β-arr2/Venus proximal to RAGE/Rluc8 [1]: recruitment

Molecule: CCL20: chemokine ligand used to activate CCR6
recruitment of β-arr2/Venus proximal to RAGE/Rluc8 [3]: recruitment

Molecule: CXCL8: chemokine ligand used to activate CXCR1 and CXCR2
recruitment of β-arr2/Venus proximal to RAGE/Rluc8 [4]: Weak | recruitment of β-arr2/Venus proximal to RAGE/Rluc8 [5]: recruitment

Molecule: CXCL11: chemokine ligand used to activate CXCR3
recruitment of β-arr2/Venus proximal to RAGE/Rluc8 [6]: Lack of

Molecule: mCherry/RAGE338-361: mCherry fusion of RAGE338-361 (LGTLALALGILGGLGTAALLIGVI; also: mCherry fusion)
Ang II-induced BRET signal with AT1/Rluc8 ([8]; cells also transfected with RAGE/Venus cDNA, filters mCherry 650 nm/Rluc8 450 nm): Lack of | BRET with Nluc/AT1 ([8]; with Ang II): increased | inhibition of Ang II-induced ICAM-1 expression [9]: inhibited

B2: CCL27: chemokine ligand used to activate CCR10 (protein)
chain: FLLPPSTACCTQLYRKPLSDKLLRKVIQVELQEADGDCHLQAFVLHLAQRSICIHPQNPSLSQWFEHQERKLHGTLPKLNFGMLRKMG
recruitment of β-arr2/Venus proximal to RAGE/Rluc8 [11]: Lack of

Source: patent US12060408B2, “Screening assays, modulators and modulation of activation of Receptor for Advanced Glycation End-products (RAGE)” (Monash University, priority 2017, dated 2024)
